Measurements from patent US10918733B2, “Lipopeptide- and lipoprotein-conjugates and its use” (HELMHOLTZ-ZENTRUM FUER INFEKTIONSFORSCHUNG GMBH, priority 2009, dated 2021).

Tested on: Ova-specific CD4+ T cells
Test: Proliferation of CFSE-stained T cells co-cultured with treated DC: CD4+ T cells
Format: cell-based, OT2-tg mice
Conditions: DC incubated with 10 μg/mL for 24 h, co-culture 4 days
Experimental: T cell-mediated immune responses were investigated 96 h by measuring the proliferation of cells recovered from spleens after restimulation with BPPcysOva^mPEG. Non-Ag restimulated spleen cells were chosen as negative controls (FIG. 3). […] Taking into consideration that the BPPcysOva^mPEG has a promising effect on DC activation and maturation, next the capacity of these APC to stimulate the proliferation of antigen-specific CD8+ and CD4+ T cells was evaluated. Concentrations below 10^−8 M of BPPcysOva^mPEG were still able to induce an antigen specific proliferation of CD4+ T cells shown by the reduction of CFSE+ cells (FIGS. 4A-E).
FIG. 4: Proliferation of CD8+, CD4+ and regulatory T cells. DC were generated from bone marrow of C57BL/6 mice and incubated with 10 μg/mL of B) Ova C) Ova peptides, D) Ova in the presence of BPPcysMPEG and E) BPPcysOva^mPEG alone (A) Control) for 24 h. The following day, CD4+ T cells from spleens of OT2-tg animals or CD8+ T cells of OT1-tg animals were isolated. After staining with CFSE, CD8+, CD4+ T cells were co-cultured with adjuvant-treated DCs for 4 days. The decrease of CFSE-FITC expression due to cell division of CD8+ or CD4+ T cells were analysed by flow cytometric analysis. One representative experiment out of two is shown.

B1: Ova: model antigen ovalbumin (Sigma Chemie) (protein, UniProt P01012 2-386, looked up)
Ovalbumin: GSIGAASMEFCFDVFKELKVHHANENIFYCPIAIMSALAMVYLGAKDSTRTQINKVVRFDKLPGFGDSIEAQCGTSVNVHSSLRDILNQITKPNDVYSFSLASRLYAEERYPILPEYLQCVKELYRGGLEPINFQTAADQARELINSWVESQTNGIIRNVLQPSSVDSQTAMVLVNAIVFKGLWEKAFKDEDTQAMPFRVTEQESKPVQMMYQIGLFRVASMASEKMKILELPFASGTMSMLVLLPDEVSGLEQLESIINFEKLTEWTSSNVMEERKIKVYLPRMKMEEKYNLTSVLMAMGITDVFSSSANLSGISSAESLKISQAVHAAHAEINEAGREVVGSAEAGVDAASVSEEFRADHPFLFCIKHIATNAVLFFGRCVSP
  stimulation of proliferation of Ova-specific CD4+ T cells by treated DC: weak stimulation
